We go through eight molecules from patent US20260049134A1 (UNIVERSITY OF FLORIDA RESEARCH FOUNDATION, published 2026).

In experiment [1] the target is T1, ICAM1-Fc (R&D Systems) (human, UniProt P05362 28-480).
T1 construct: Bought; also called ICAM-1/CD54; not shown: Fc of the bought fusion protein
As to the kind of experiment: ELISA on coated ICAM1-Fc, 150 ng IgG1; None 0.060. Here is the method: (§1) Recombinant purified ECDs (50-150 ng) of each putative target protein were coated, incubated with 150 ng of the indicated primary antibody, and binding was detected using a peroxidase-conjugated anti-human Fab secondary antibody. Heatmap represents averages of technical triplicates. (8B) Target validation via siRNA knockdown. H929 cells were transfected with siRNA pools targeting the putative antibody targets ICAM1, CADM1, and PTPRG. Cells were then subjected to cognate IgG binding analysis via flow cytometry. (NT, non-targeting siRNA).
(§2) ELISA ELISA was conducted as described previously. Briefly, 50-150 ng of antigen was coated overnight in half-area 96-well plates at 4° C., blocked with 3% BSA at 37° C. for 1 h, and 150 ng of chimeric rabbit/human IgG1 was added, incubating for 2 h at 37° C. […] After incubating at 37° C. for 15 min-1 h (depending on intensity of controls), data were acquired using a SpectraMax M5 plate reader (Molecular Devices).
Background: An ELISA detects its analyte on a solid surface through an enzyme-linked reagent.

Experiment [2] addresses T2, IGSF11 (VSIG3).
T2 construct: coated protein in the ELISA; also called IGSF11-Fc (R&D Systems)
T2 chain: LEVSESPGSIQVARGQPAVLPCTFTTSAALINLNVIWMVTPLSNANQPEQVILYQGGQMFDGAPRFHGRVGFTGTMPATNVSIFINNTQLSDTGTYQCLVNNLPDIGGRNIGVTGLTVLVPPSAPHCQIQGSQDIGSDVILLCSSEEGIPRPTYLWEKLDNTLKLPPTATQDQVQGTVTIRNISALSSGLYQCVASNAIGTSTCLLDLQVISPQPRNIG
As to the kind of experiment: ELISA on coated IGSF11-Fc. How it is done: as §1, §2

Experiment [3] deals with T2, IGSF11 (VSIG3). As to the kind of experiment: ELISA on coated IGSF11-Fc, 150 ng IgG1; None 0.090. How it is done:
as §1, §2

The target of the next experiment is T3, SELL (L-Selectin).
T3 construct: coated protein in the ELISA; also called SELL-Fc-His (R&D Systems)
T3 chain: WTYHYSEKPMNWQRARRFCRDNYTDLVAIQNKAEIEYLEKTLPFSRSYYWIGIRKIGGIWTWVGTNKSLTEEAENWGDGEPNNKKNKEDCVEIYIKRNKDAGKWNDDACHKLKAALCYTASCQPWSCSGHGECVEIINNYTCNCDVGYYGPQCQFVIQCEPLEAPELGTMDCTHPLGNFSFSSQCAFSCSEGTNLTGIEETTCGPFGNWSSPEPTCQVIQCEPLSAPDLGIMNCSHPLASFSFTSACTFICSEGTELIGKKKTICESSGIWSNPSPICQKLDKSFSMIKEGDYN
Description: ELISA on coated SELL-Fc-His, 150 ng IgG1; None 0.096. Here is the method: as §1, §2

The target of experiment [4] is T1, ICAM1-Fc (R&D Systems). As to the kind of experiment: ELISA on coated ICAM1-Fc. Here is the method:
as §1, §2

The target in a further experiment is T4, APP.
T4 construct: His-tagged; coated protein in the ELISA; also called APP-His (Acro Biosystems)
Description: ELISA on coated APP-His, 150 ng IgG1; None 0.092. Here is the method:
as §1, §2

Another experiment has as its target T5, ANXA1.
T5 construct: coated protein in the ELISA; also called ANXA1-His (R&D Systems)
T5 chain: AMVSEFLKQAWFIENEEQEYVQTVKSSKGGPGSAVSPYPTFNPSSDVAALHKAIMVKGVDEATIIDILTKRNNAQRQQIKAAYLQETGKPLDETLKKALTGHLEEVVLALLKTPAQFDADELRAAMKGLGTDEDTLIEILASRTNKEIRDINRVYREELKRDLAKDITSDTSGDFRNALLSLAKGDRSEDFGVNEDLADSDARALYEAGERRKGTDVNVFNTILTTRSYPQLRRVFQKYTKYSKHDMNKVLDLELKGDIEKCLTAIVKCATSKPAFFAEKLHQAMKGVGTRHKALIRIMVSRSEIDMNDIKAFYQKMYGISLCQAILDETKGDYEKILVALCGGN
Description: ELISA on coated ANXA1-His, 150 ng IgG1; None 0.098. Here is the method: as §1, §2

A further experiment deals with T6, PTP4A3 (PRL-3).
T6 construct: coated protein in the ELISA; also called His-PTP4A3 (R&D Systems)
As to the kind of experiment: ELISA on coated His-PTP4A3. Here is the method:
as §1, §2

T6 sequence (chain, as listed by the source limits assumed): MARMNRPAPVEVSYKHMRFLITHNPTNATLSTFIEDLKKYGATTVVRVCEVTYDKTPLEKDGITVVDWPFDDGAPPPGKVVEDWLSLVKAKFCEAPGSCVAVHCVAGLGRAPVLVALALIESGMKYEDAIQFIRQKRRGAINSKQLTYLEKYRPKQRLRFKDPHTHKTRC
T1 sequence (P05362 28-480): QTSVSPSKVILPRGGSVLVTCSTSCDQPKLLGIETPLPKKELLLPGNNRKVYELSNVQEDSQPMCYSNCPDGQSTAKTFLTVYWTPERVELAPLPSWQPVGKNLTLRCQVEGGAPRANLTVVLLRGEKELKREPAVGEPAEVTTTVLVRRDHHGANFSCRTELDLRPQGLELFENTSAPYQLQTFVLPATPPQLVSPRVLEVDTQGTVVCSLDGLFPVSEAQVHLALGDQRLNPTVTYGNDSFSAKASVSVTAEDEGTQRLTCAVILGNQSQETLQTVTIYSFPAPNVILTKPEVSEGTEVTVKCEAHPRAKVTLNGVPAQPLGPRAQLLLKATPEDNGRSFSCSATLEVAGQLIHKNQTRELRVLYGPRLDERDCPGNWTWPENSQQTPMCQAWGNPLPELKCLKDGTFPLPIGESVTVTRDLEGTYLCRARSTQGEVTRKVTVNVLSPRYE

B1: TH9-0022 (antibody, human IgG1, kappa, L234A L235A, V domains shown)
VH: QSLEESGGRLVTPGTPLTLTCTVSGFSLSSYAMNWVRQAPGKGLEWIGIINSYGSTYYASWAKGRFTISKTSTTVDLKITSPTTEDTATYFCARVTYDSYGYGYAPYGMDLWGPGTLVTVSS
VL: LVMTQTPSSTSNAVGGTVTIKCQASQSIGNVLAWYQQKPGQPPKLLIYAASTLASGVPSRVGGSRSGTEYTLTISGVQREDAATYYCLGSDSDSDIAFGGGTELEILR
notes: also called TH9-022; negative control
In the case of B1, the “ELISA Absorbance (405 nm-570 nm)” value stood at 0.077 in the experiment with ICAM1-Fc (R&D Systems) [1]; 0.08 in the experiment with IGSF11 (VSIG3) [3]; 0.081 in the experiment with SELL (L-Selectin); 0.082 with APP; 0.09 in the experiment with ANXA1. Further, the binding result with IGSF11 (VSIG3) [2], with ICAM1-Fc (R&D Systems) [4] and in the experiment with PTP4A3 (PRL-3) was “no binding (tested: 150 ng IgG1 per well)” throughout.

B2: HW-42 chimeric rabbit-human IgG1 LA/LA/PG (antibody, V domains shown)
VH: QSVKESEGGLFKPADTLTLTCTVSGFSLSSNEISWVRQAPGEGLEYIGIIDTGGRAYYAVWARSRSTITRNTNLNTVTLKMTSLTAADTATYFCARGGVDTEWYAFSSWGPGTLVTVPS
VL: SFVLTQPASVQVNLGQTVSLTCTADTLSRRYASWYQQKPGQAPVLLIFRDTSRPSGVPDRFSGSSSGDTATLTISGAQAGDEADYYCATSDGSGSNYQYVFGGGTQLTVTG
notes: Fc-silenced (L234A/L235A/P329G) IgG1, lambda; Alexa Fluor 647-labeled in single-step flow cytometry; Cluster C-1
On to B2, for which the “ELISA Absorbance (405 nm-570 nm)” value with ICAM1-Fc (R&D Systems) [1] came out at 0.082; with IGSF11 (VSIG3) [3] it was 0.088; with SELL (L-Selectin), 0.103; with APP, 0.087; with ANXA1, 0.103. In addition, the binding result with IGSF11 (VSIG3) [2], with ICAM1-Fc (R&D Systems) [4] and in the experiment with PTP4A3 (PRL-3) was “no binding (tested: 150 ng IgG1 per well)” in each case.

B3: HW-70 chimeric rabbit-human IgG1 LA/LA/PG (antibody, V domains shown)
VH: QSLEESGGRLVTPGTPLTLTCTVSGFSLSSNAMSWVRQAPGKGLEWIGTIDGYGYTYYASWAKGRFTVSKTSTTVDLKITSPTTEDTATYFCAREIYLGSNFWGPGTLVTISS
VL: SFVLTQPASVQVNLGQTVSLTCTADTLSRRYASWYQQKPGQAPVLLIYRDTSRPSGVPDRFSGSSSGNTATLTISGAQAGDEADYYCATADGSGSSYQFVFGGGTQLTVTG
notes: as for B2
In the case of B3, the “ELISA Absorbance (405 nm-570 nm)” value is 0.064 with ICAM1-Fc (R&D Systems) [1]; 0.085 with IGSF11 (VSIG3) [3]; 0.09 with SELL (L-Selectin); 0.089 with APP; 0.102 with ANXA1. Besides, the binding result with IGSF11 (VSIG3) [2], with ICAM1-Fc (R&D Systems) [4] and with PTP4A3 (PRL-3) was “no binding (tested: 150 ng IgG1 per well)” each time.

B4: HW-1 chimeric rabbit-human IgG1 LA/LA/PG (antibody, V domains shown)
VH: QSLEESGGGLFKPTDTLTLTCTASGFSLGSSYAISWVRQAPGKELEWIGTIDSGRAYYARWAKSRSTITRNTNENTVTLKMTSLTAADTATYFCARDLIPTYSQDIWGPGTLVTISS
VL: SFVLTQPASVQVNLGQTVSLTCTADTLSRRYASWYQQKPGQAPVLLIYRDTSRPSGVPDRFSGSSSGNTATLTISGAQAGDEADYYCATSDGSGNSYQYVFGGGTQLTVTS
notes: Fc-silenced (L234A/L235A/P329G) IgG1, lambda; Alexa Fluor 647-labeled in single-step flow cytometry; Prototype of cluster C-1
For the molecule B4, the “ELISA Absorbance (405 nm-570 nm)” value in the experiment with ICAM1-Fc (R&D Systems) [1] worked out at 0.065; in the experiment with IGSF11 (VSIG3) [3], 0.074; with SELL (L-Selectin), 0.078; with APP, 0.071; in the experiment with ANXA1, 0.085. For the same molecule, the binding result with IGSF11 (VSIG3) [2] and with PTP4A3 (PRL-3) was “no binding (tested: 150 ng IgG1 per well)” throughout.

B5: HW-101 chimeric rabbit-human IgG1 LA/LA/PG (antibody, V domains shown)
VH: QEQLVESGGRLVTPGTPLTLTCKASGFSLGKYDMSWVRQAPGKGLEWIGTIYAGSGSTWYASWAKGRFTISKTSTTVDLKMTSLTTEDTATYFCARDFLGVNSIWGPGTLVTISS
VL: SFVLTQPASVQVNLGQTVSLTCTADTLSRSYASWYQQKPDQAPVLLIHRDTSRPSGVPDRFSGSNSGNTATLTISGAQAGDEADYYCATSDGSGSNFHFVFGGGTQLTVTG
notes: Fc-silenced (L234A/L235A/P329G) IgG1, lambda; Alexa Fluor 647-labeled in single-step flow cytometry; Cluster C-97
For the molecule B5, the “ELISA Absorbance (405 nm-570 nm)” value worked out at 0.055 with ICAM1-Fc (R&D Systems) [1]; 0.066 with IGSF11 (VSIG3) [3]; 0.072 in the experiment with SELL (L-Selectin); 0.061 with APP; 0.066 in the experiment with ANXA1. Further, the binding result with IGSF11 (VSIG3) [2] and with PTP4A3 (PRL-3) was “no binding (tested: 150 ng IgG1 per well)” in each case.

B6: HW-17 chimeric rabbit-human IgG1 LA/LA/PG (antibody, V domains shown)
VH: QSLGESRGRLVTPDETLTLTCTVSGIDLSSNAMSWVRQAPGEGLEWIGTINTGGRAYYASWAKGRFTISRTSTTVDLKMTSLTTEDTATYFCARERYSDGRAYDIWGPGTLVTISS
VL: SFVLTQPASVQVNLGQTVSLTCTADTLSRRYASWYQQKPGQAPVLLIYTDSNRPSGIPDRFSGSSSGNTATLTISGAQAGDEADYYCATDDGSGSIYQYVFGGGTQLTVTG
notes: as for B2
As for B6, the “ELISA Absorbance (405 nm-570 nm)” value worked out at 0.071 with ICAM1-Fc (R&D Systems) [1]; 0.094 with IGSF11 (VSIG3) [3]; 0.072 in the experiment with SELL (L-Selectin); 0.062 with APP; 0.073 with ANXA1. Also, the binding result with IGSF11 (VSIG3) [2] and in the experiment with PTP4A3 (PRL-3) was “no binding (tested: 150 ng IgG1 per well)” each time.

B7: HW-97 chimeric rabbit-human IgG1 LA/LA/PG (antibody, V domains shown)
VH: QKQLVESGGRLVTPGTPLTLTCTVTGIDLSSHGMSWVRQAPGKGLEWIGVIYPSGSTWYASWARGRFTISKTSTTVDLKMTSLTTEDTATHFCARGDVGGADNNIWGPGTLVTVSS
VL: SFVLTQPASVQVDLGQTVSLTCTAETLSRSYASWYQQKPGQAPVLLIYRDTSRPSGVPDRFSGSSSGNTATLTISGAQAGDEADYYCATSDGSGSSYQYVFGGGTQLTVTG
notes: Fc-silenced (L234A/L235A/P329G) IgG1, lambda; Alexa Fluor 647-labeled in single-step flow cytometry; Prototype of cluster C-97
Regarding B7, the “ELISA Absorbance (405 nm-570 nm)” value with ICAM1-Fc (R&D Systems) [1] was 0.081; with IGSF11 (VSIG3) [3] it was 0.078; with SELL (L-Selectin), 0.075; with APP, 0.067; in the experiment with ANXA1, 0.075. In addition, the binding result with IGSF11 (VSIG3) [2] and with PTP4A3 (PRL-3) was “no binding (tested: 150 ng IgG1 per well)” each time.

B8: HW-113 chimeric rabbit-human IgG1 LA/LA/PG (antibody, V domains shown)
VH: QKQLVESGGGLVQPGGSLTLTCTVSGFSLNKYYMGWFRQAPGKGLEWIGVISRSGDTYYSSWAKGRFTISKASTTVDLRITSPTTEDTATYFCARDASSPGFHGDRLDLWGQGTLVTVSS
VL: SFVLTQPASVQVNLGQTVSLTCTADTLSRSYASWYQQKPGQAPVLLIYRDTSRPSGVPDRFSGSSSGNTATLTISGAQAGDEADYYCATSDGIGSNYLWVFGGGTQLTVTG
notes: Fc-silenced (L234A/L235A/P329G) IgG1, lambda; Alexa Fluor 647-labeled in single-step flow cytometry
With B8, the “ELISA Absorbance (405 nm-570 nm)” value is 0.498 with ICAM1-Fc (R&D Systems) [1]; 0.075 with IGSF11 (VSIG3) [3]; 0.088 with SELL (L-Selectin); 0.074 with APP; 0.073 in the experiment with ANXA1. Also, the binding result in the experiment with IGSF11 (VSIG3) [2] and with PTP4A3 (PRL-3) was “no binding (tested: 150 ng IgG1 per well)” in each case.
